Key:
Assay in all cases: peptide microarray, 8mer on the chip, 1 µg/mL LY75_A1, anti-human IgG Alexa 647
FTSCSERH = molecular target: T1, FTSCSERH
T1 construct: LY75 8mer on the microarray
T1 peptide: FTSCSERH
Description: (§1) The peptide microarray analysis was performed by LC Sciences, Houston Tex., in brief the method comprised the following steps: —Contiguous 8mer peptides of LY75 protein having […] spanning residues 216 to 1666 of the full length LY75 protein were synthesized and immobilized on a microarray chip. The chip comprised three panels such that the experiment was performed in triplicate. […] The binding assay was performed under the following conditions:—
(§2) The microarray comprising the contiguous peptides in triplicate was washed with 1 mL of binding buffer at 4° C. for 20 min. […] The array was again washed with 0.5 mL of washing buffer at 4° C. for 30 min then incubated with 25 ng/mL anti-human IgG Alexa 647 conjugate in binding buffer (pH 7.0) at 4° C. for 1 hr. The array was again washed with 0.5 mL of washing buffer at 4° C. for 30 min.

SLSCYKVF = molecular target: T2, SLSCYKVF
T2 construct: LY75 8mer on the microarray
T2 peptide: SLSCYKVF
Description: as §1, §2

QYKGHCYK = molecular target: T3, QYKGHCYK
T3 construct: LY75 8mer on the microarray
T3 peptide: QYKGHCYK
Description: as §1, §2

DHFTYSRY = molecular target: T4, DHFTYSRY
T4 construct: LY75 8mer on the microarray
T4 peptide: DHFTYSRY
Description: as §1, §2

PWHRFPVT = molecular target: T5, PWHRFPVT
T5 construct: LY75 8mer on the microarray
T5 peptide: PWHRFPVT
Description: as §1, §2

FVSLCQKY = molecular target: T6, FVSLCQKY
T6 construct: LY75 8mer on the microarray
T6 peptide: FVSLCQKY
Description: as §1, §2

YSNFHPLL = molecular target: T7, YSNFHPLL
T7 construct: LY75 8mer on the microarray
T7 peptide: YSNFHPLL
Description: as §1, §2

GWHFYDDR (765-772) = molecular target: T8, GWHFYDDR (765-772) (human)
T8 construct: Tryptic peptide of recombinant LY75, found by LC-MS/MS after pull down
T8 peptide: GWHFYDDR
Description: as §1, §2

SCSERHFV = molecular target: T9, SCSERHFV
T9 construct: LY75 8mer on the microarray
T9 peptide: SCSERHFV
Description: as §1, §2

LSRLTYSS = molecular target: T10, LSRLTYSS
T10 construct: LY75 8mer on the microarray
T10 peptide: LSRLTYSS
Description: as §1, §2

YPWHRFPV = molecular target: T11, YPWHRFPV
T11 construct: LY75 8mer on the microarray
T11 peptide: YPWHRFPV
Description: as §1, §2

EAVYFHQH = molecular target: T12, EAVYFHQH
T12 construct: LY75 8mer on the microarray
T12 peptide: EAVYFHQH
Description: as §1, §2

YKSDQALH = molecular target: T13, YKSDQALH
T13 construct: LY75 8mer on the microarray
T13 peptide: YKSDQALH
Description: as §1, §2

AVYFHQHS = molecular target: T14, AVYFHQHS
T14 construct: LY75 8mer on the microarray
T14 peptide: AVYFHQHS
Description: as §1, §2

SCYKVFHA = molecular target: T15, SCYKVFHA
T15 construct: LY75 8mer on the microarray
T15 peptide: SCYKVFHA
Description: as §1, §2

EVKDCRSF = molecular target: T16, EVKDCRSF
T16 construct: LY75 8mer on the microarray
T16 peptide: EVKDCRSF
Description: as §1, §2

RYPWHRFP = molecular target: T17, RYPWHRFP
T17 construct: LY75 8mer on the microarray
T17 peptide: RYPWHRFP
Description: as §1, §2

NGSRWIQY = molecular target: T18, NGSRWIQY
T18 construct: LY75 8mer on the microarray
T18 peptide: NGSRWIQY
Description: as §1, §2

HRFPVTFG = molecular target: T19, HRFPVTFG
T19 construct: LY75 8mer on the microarray
T19 peptide: HRFPVTFG
Description: as §1, §2

KKLSRLTY = molecular target: T20, KKLSRLTY
T20 construct: LY75 8mer on the microarray
T20 peptide: KKLSRLTY
Description: as §1, §2

GSRWIQYK = molecular target: T21, GSRWIQYK
T21 construct: LY75 8mer on the microarray
T21 peptide: GSRWIQYK
Description: as §1, §2

DREFIYLR = molecular target: T22, DREFIYLR
T22 construct: LY75 8mer on the microarray; aa 771-778 counted from Region 3 (aa761-780)
T22 peptide: DREFIYLR
Description: as §1, §2

RELTYSNF = molecular target: T23, RELTYSNF
T23 construct: LY75 8mer on the microarray
T23 peptide: RELTYSNF
Description: as §1, §2

VYFHQHSI = molecular target: T24, VYFHQHSI
T24 construct: LY75 8mer on the microarray
T24 peptide: VYFHQHSI
Description: as §1, §2

HFTYSRYP = molecular target: T25, HFTYSRYP
T25 construct: LY75 8mer on the microarray
T25 peptide: HFTYSRYP
Description: as §1, §2

YKGHCYKS = molecular target: T26, YKGHCYKS
T26 construct: LY75 8mer on the microarray
T26 peptide: YKGHCYKS
Description: as §1, §2

LTYSNFHP = molecular target: T27, LTYSNFHP
T27 construct: LY75 8mer on the microarray
T27 peptide: LTYSNFHP
Description: as §1, §2

Measured: binding result

B1: LY75_A1 monoclonal antibody (antibody, human IgG1, kappa, V domains shown)
VH: EVQLVESGGGLVKPGGSLRLSCAASGFTYSNAWMSWVRQAPGKGLEWVGRIKSKTDGGTTDYAAPVQGRFTISRDDSKNTLYLQMNSLKTEDTAVYYCTIFGVVSFDYWGQGTLVTVSS
VL: DVQMTQSPSSLSASVGDRVTITCRASQSISDYLSWYQQRPGKAPNLLIYAASNLKTGVPSRFSGSGSGTDFTLTISTLQPEDFATYYCQQSYRSPWTFGQGTKVEIKR
notes: also called LY75A1 antibody; antibody LY75_A1
binds: FTSCSERH | SLSCYKVF | QYKGHCYK | DHFTYSRY | PWHRFPVT | FVSLCQKY | YSNFHPLL | GWHFYDDR (765-772) | SCSERHFV | LSRLTYSS | YPWHRFPV | EAVYFHQH | YKSDQALH | AVYFHQHS | SCYKVFHA | EVKDCRSF | RYPWHRFP | NGSRWIQY | HRFPVTFG | KKLSRLTY | GSRWIQYK | DREFIYLR | RELTYSNF | VYFHQHSI | HFTYSRYP | YKGHCYKS | LTYSNFHP

Source: US20210113690A1 (BERLIN CHEMIE, published 2021)
